Source: PMC3029278

Molecular target: CEACAM1-4L-HA (HA-tagged human CEACAM1) (human) (UniProt P13688)
Sequence of UniProt P13688 (P13688 35-526): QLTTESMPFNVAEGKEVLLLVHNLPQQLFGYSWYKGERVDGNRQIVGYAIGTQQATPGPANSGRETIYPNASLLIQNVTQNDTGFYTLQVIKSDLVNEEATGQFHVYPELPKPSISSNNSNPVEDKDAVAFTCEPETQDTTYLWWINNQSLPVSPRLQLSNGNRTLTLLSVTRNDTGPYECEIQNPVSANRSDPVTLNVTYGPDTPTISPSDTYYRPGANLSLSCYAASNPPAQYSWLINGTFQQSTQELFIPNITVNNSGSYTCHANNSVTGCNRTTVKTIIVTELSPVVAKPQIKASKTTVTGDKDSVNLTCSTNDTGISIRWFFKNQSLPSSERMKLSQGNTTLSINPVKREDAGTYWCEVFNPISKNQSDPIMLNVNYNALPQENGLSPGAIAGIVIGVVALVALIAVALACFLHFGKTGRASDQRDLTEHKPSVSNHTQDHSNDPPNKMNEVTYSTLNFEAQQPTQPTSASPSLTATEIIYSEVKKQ

## Opa52 protein of Neisseria gonorrhoeae strain MS11 (natural protein)
  internalised OpaCEA-positive gonococci in CEACAM1-transfected 293 cells (gentamicin protection assay, 2 h): 210000 cfu/ml
